Results published in the supplement of paper PMC9170038.

These sequences were tested on K4 kissing-loop RNA reporter (assay: apparent KD of K4 kissing-loop reporter; higher = weaker reporter binding). Details: Eterna round: R107; input ligand: FMN 200 uM.
Procedure: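 RNA-MaP round R107: designed RNA switches with theophylline, tryptophan, arginine or FMN aptamers are transcribed on-chip within common flanks. They are titrated with a labelled K4 kissing-loop RNA reporter in RNA-MaP buffer (100 mM Tris pH 7.5, 80 mM KCl, 4 mM MgCl2), without ligand or with the indicated ligand. Median apparent KD per design.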
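Further: bound reporter read as fluorescence of individual clusters on recovered sequencing chips by microscopy, with normalized cluster intensities fitted with a binding model.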

Point of comparison: “AUGCGCAGCCUGCUUACGUAUGAGCCGGAAGGAGCGGCAGAAUUGCCAGGUAGGUCGCCGGCCCAGUGAUGUUGGGAUGGUGUGG [Atusqubela]”, “apparent KD of K4 kissing-loop reporter” value 279 nM. Against it:
- UCCACGCUUAGAGGAUAUCGGAUUAGAGUGAUGUUCUAAAGACGCCCAGUGAUGUUGGAUGGUAUACGAGAAGGCUGUGGCGUGU [Same State FMN B GF5] — within 1.5-fold, 219 nM
- AUGAGGAGCAGUGAUCCUAUUCCAUGGGAAGGAGCGUAGGAUACUACAGGUAGGUCGCCCAGUGAUGUUGGGCGCGUGCUCUUGG [Zaqua] — 1.8-fold lower, 159 nM
- UGACUGGAUUGAAGGAGCGCUAAACUCCUAGUGAUGUUAGGGACACGAGACAAAGUCUCGAGGCAGGUAGGUCGCAAUCUAGUCU [FiskerMod 6 - Jieux - Same State - Arginine B] — within 1.5-fold, 309 nM
- GGAUAGGACAGAGGAUAUGGGCUAGGCAAGAAUAACUUGUCUAGCAAAUCCAUGAGGAGUGAUGUUCCAGAAGGCUGUCCUAUCG [FmnBX 1 - #SwitchBubble #StraticStem #DoubleMagnetSystem] — within 1.5-fold, 375 nM
- ACCACCAGCCGCACGAUACACGGGCAUUACCGAGGACCGGUACGGCCGCCACUCGCCCGCACGCUGGAUCGAGUGAUGUUCGAUC [theeternabot_sameState_KL_Trp_A_15] — within 1.5-fold, 358 nM
- AGCGGCCAGUCGGCCGCCACUCCAAGCAGUGAUGUUGCUAAGUUUCUACAAGAGUGAUGUUCUUAGAGGACCGGGACUGAUGUGA [Exclusion Tryptophan B Gf 7] — within 1.5-fold, 192 nM
- UAGGCCGCAUACAUUAGAUAAGGUACCGAUACCAGCCUCGCACCAGGCCCUUGGCAGCGGCAUCAAAUGGGUAGUGAUGUUACCU [theeternabot_exclusion_KL_Theo_A_20] — 2-fold lower, 139 nM
- GUUACGCAUGGAAGGAGCGCACUCCGAUUGGGCGACACAGUGAUGUUGUGGUUCGUUCGAAUGCAGGUAGGUCGCCAUGUGUAAC [Ex Arginine B K4 20] — 1.5-fold lower, 181 nM
- AACACUCACGGAGUGAUGUUCUGGAAUAAACGAGGACCGGUACGGCCGCCACUCGAAAAUGAGUGAGUCCUACGAAAAGUAGGAC [Omei inspired 4] — within 1.5-fold, 357 nM
- AAUUUAUAUUUAUUCUUUAAAUGUUCAGAAGGAGCGUGAAUUAUCACAGGUAGGUCGCUGAGCUAGUGAUGUUGGCUAUAUACUA [whbob_Ex_Arginine_A_2t124] — 1.7-fold lower, 167 nM
- GGCACUUUUGGUAGAAACCAUCUACCUCUAUAGGAUAUGCCGAAAGGCAGAAGGAUAGACCUACAGAGUGAUGUUCUGCGUGCCU — 2.5-fold higher, 692 nM
- GCCCGGGCGAGUGAUGUUCGCCCACGUGAUACCAGUGCCAUCCAACACCCUUGGCAGCACGCGGGCAGUGAUGUUGCCCUUGUAU [Exclusion Theophylline A GF 4] — 2.4-fold lower, 115 nM
- UGCAUGCUUAGAGUGAUGUUCUAAGAUGAUACCAGUGCUUUUUUGCACCCUUGGCAGCGUCUGAUUGCAUGCACGUCGAAAGACG — within 1.5-fold, 288 nM
- ACGUGCACCAGUGAUGUUGGAAAAUAUGAAGGAGCGGGAGAAAGCCCAGGUAGGUCGCAUAAUAGCACGAGCCACGAAAGUGGCA — within 1.5-fold, 233 nM
- CGUUUAUAGCAGGAUACCAGUACCCAUUAAGUACGUUAAUAGUAGAGUGAUGUUCUAAAGUACCCUUGGCAGCUUCCCGUGACCC [ExTheophylB.X] — 2.7-fold lower, 103 nM
- UGACAUUGCUCAGAUACCAGACAUGAGCAUCAGCCAUGUACCAAGAAAACGUACAUAAAUGUCCCUUGGCAGCUGAGCAAUGUCU [TheoBX 10] — 3.3-fold lower, 83.5 nM

Same assay, conditions: Eterna round: R107; input ligand: arginine 13.2 mM

Point of comparison: “UUUUUGGUUUAGAGUGAUGUUCCUUGUAUUCGAGGACCGGUACGGCCGCCACUCGAAUAGAAAAGAAAAGAAAAGAGUGAUGUUU [BDazzled - #3 SS Tryptophan A]”, “apparent KD of K4 kissing-loop reporter” value 229 nM. Against it:
- GCUAUGGUAGGAAGGAGCGCUUAUUUAUUUUUAAGAGUGAUGUUCGAUAGUAGAUAUUUAAAGCAGGUAGGUCGCCUACUAUAGC [Arginine B K4 13] — within 1.5-fold, 159 nM
- UGUACUAUUGUGAGUGAUGUUCACUUCGAUACCAGCAGAGCGAUCUGCCCUUGGCAGCGAGUUAACUGCCGAAAGGCAAGGAUUA [Theo B SS t9] — 2.3-fold higher, 528 nM
- AGGAUGUAGUGAUGUUAUAUAAGAAGUAAACGAGGACCGGUACGGCCGCCACUCGAAGCGGCUACUAGCGCGUUGCGAGGUGCGC [ExTryptoA.Cc] — 2-fold higher, 451 nM
- CUAUAGACCCUUCGGAUAGUGAUGUUGUCACGAGGACCGGUACGGCCGCCACUCGCUGCCACCAUACCGCUUCACGGAACGAGCA [theeternabot_exclusion_KL_Trp_A_7] — 1.9-fold higher, 429 nM
- AAACAACUUGACGAUACCAGCUUACUCGGCAAGCCAGUGAUGUUGGUGAAAAGGAGUCAAAGCCCUUGGCAGCGUCGAAGGUCUG [Raatarerin] — within 1.5-fold, 240 nM
- CGCCGCAACUGAAGGAGCGCGCCAGUGAUGUUGGACGGCUUUGUCAAGGAAACUGCACCGGUGCAGGUAGGUCGCAGUUCGCGGU [Dilea] — within 1.5-fold, 291 nM
- GUAUGUGGAAACACGUACUUGUAUCCUAGGCAGGAUAUGCGGAAACGCAGAAGGGCCACCGGCGAGUUUAUCCAGUGAUGUUGGA [Ex FMN A 9] — within 1.5-fold, 257 nM
- AAUAAAAUCACGGCCGCCACUGAAUAAUUACAAAGUAGUGAUGUUACUUUACAUAUCUUAUUUAACAGGACCGGGUGAAUAUUUA [JR_ExcTryptoB_Sub007] — 3.3-fold lower, 70.2 nM
- GAACGGCGGGCGGCCGCCACUGGUAUACGAGUGAUGUUCGGAUAUACAUAAAAUAAGGUAAUUAACAGGACCGGGUCAGAGCCGG [Tryptophan B Same State; Euphoria Solution] — 1.8-fold lower, 130 nM
